The values below come from patent publication US20240209058A1 (published 2024).

Assay [1] addresses T1, human mesothelin (MSLN) peptide on HLA-A*02:01 (human).
T1 peptide: VLPLTVAEV
In words: multimer staining.

Assay [2] concerns the target T2, human mesothelin (MSLN) peptide on HLA-A*02:01 (human).
T2 peptide: SLLFLLFSL
In words: multimer staining.

B1: MSLN530-538 clone 5 (TCR, V domains shown)
Valpha: TQLLEQSPQFLSIQEGENLTVYCNSSSVFSSLQWYRQEPGEGPVLLVTVVTGGEVKKLKRLTFQFGDARKDSSLHITAAQTGDTGLYLCAGGMESGGGADGLTFGKGTHLIIQP
Vbeta: DTGVSQNPRHKITKRGQNVTFRCDPISEHNRLYWYRQTLGQGPEFLTYFQNEAQLEKSRLLSDRFSAERPKGSFSTLEIQRTEQGDSAMYLCASTSTGGLKNTEAFFGQGTRLTVV
Regarding B1, in assay [1], the binding result was “recognises”.

B2: MSLN20-28 clone 8 (TCR, V domains shown)
Valpha: AQSVTQLDSQVPVFEEAPVELRCNYSSSVSVYLFWYVQYPNQGLQLLLKYLSGSTLVKGINGFEAEFNKSQTSFHLRKPSVHISDTAEYFCAVIPNNNARLMFGDGTQLVVKP
Vbeta: ETGVTQTPRHLVMGMTNKKSLKCEQHLGHNAMYWYKQSAKKPLELMFVYNFKEQTENNSVPSRFSPECPNSSHLFLHLHTLQPEDSALYLCASGQGTEAFFGQGTRLTVV
For the molecule B2, in assay [2], the binding result is on record as “recognises”.

B3: MSLN20-28 clone 7 (TCR, V domains shown)
Valpha: ILNVEQSPQSLHVQEGDSTNFTCSFPSSNFYALHWYRWETAKSPEALFVMTLNGDEKKKGRISATLNTKEGYSYLYIKGSQPEDSATYLCAFYMDSNYQLIWGAGTKLIIKP
Vbeta: NAGVTQTPKFQVLKTGQSMTLQCAQDMNHNSMYWYRQDPGMGLRLIYYSASEGTTDKGEVPNGYNVSRLNKREFSLRLESAAPSQTSVYFCASSEWTAEQYFGPGTRLTVT
For the molecule B3, in assay [2], the binding result is given as “recognises”.

B4: MSLN530-538 clone 4 (TCR, V domains shown)
Valpha: AQTVTQSQPEMSVQEAETVTLSCTYDTSESDYYLFWYKQPPSRQMILVIRQEAYKQQNATENRFSVNFQKAAKSFSLKISDSQLGDAAMYFCAYLGTGTYKYIFGTGTRLKVLA
Vbeta: EAQVTQNPRYLITVTGKKLTVTCSQNMNHEYMSWYRQDPGLGLRQIYYSMNVEVTDKGDVPEGYKVSRKEKRNFPLILESPSPNQTSLYFCASSSGGLGYTFGSGTRLTVV
Consider B4, for which the binding result in assay [1] is given as “recognises”.

B5: MSLN20-28 clone 2 (TCR, V domains shown)
Valpha: DQQVKQNSPSLSVQEGRISILNCDYTNSMFDYFLWYKKYPAEGPTFLISISSIKDKNEDGRFTVFLNKSAKHLSLHIVPSQPGDSAVYFCAASGNTDKLIFGTGTRLQVFP
Vbeta: EPEVTQTPSHQVTQMGQEVILRCVPISNHLYFYWYRQILGQKVEFLVSFYNNEISEKSEIFDDQFSVERPDGSNFTLKIRSTKLEDSAMYFCASRPGWSYEQYFGPGTRLTVT
For B5, in assay [2], the binding result was “recognises”.
